In assay [1] the target is T1, MCSF (Homo sapiens, UniProt P09603).
T1 sequence (P09603 33-255 limits assumed): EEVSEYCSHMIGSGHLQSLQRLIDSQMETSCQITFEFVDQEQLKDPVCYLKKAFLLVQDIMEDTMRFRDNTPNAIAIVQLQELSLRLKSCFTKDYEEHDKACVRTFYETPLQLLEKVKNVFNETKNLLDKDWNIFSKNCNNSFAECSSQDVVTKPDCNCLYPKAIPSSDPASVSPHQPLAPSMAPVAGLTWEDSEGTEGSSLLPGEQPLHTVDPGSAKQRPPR
As to the kind of experiment: M-NFS-60 proliferation assay, neutralizing activity (Example 1). The class given is cell-based. The conditions noted are these: 10 ng/ml M-CSF, 72 hours. As to the method: Proliferation of M-NFS-60 requires active M-CSF in a dose-dependent fashion. In the assay, M-NFS-60 cells were washed and plated in RPMI 1640 medium with 10% FBS and 3000 U/ml of M-CSF and 1% Pen/Strep. Recombinant human M-CSF (at 10 ng/ml final concentration), human or murine-specific, was incubated with various concentrations of antibodies for 1 hour at 37° C. in 5% CO2 in an incubator. Following the incubation, the mixture was added to the M-NFS-60 culture in 96 well microtiter plates. Cells were incubated at 37° C. under 5% CO2 for 72 hours before cell numbers were quantified by CellTiter Glo assay (Promega). The aforementioned assay was repeated for antibodies MC3 and MC1.

The target in assay [2] is T1, MCSF. As to the kind of experiment: Biacore analysis of Human Engineered RX1 antibodies, M-CSF immobilized (Example 13). The class given is binding. As to the method:
To determine the relative differences in the binding affinity of intact antibodies by Biacore analysis, M-CSF was immobilized onto CMS biosensor chip via amine coupling. 0.05 μg/ml M-CSF in 10 mM Na-Acetate pH 4.0 was injected at 1 μl/min for 5 minutes to achieve RL=6-12 RU. Test antibody or Fab fragments were flowed over the modified biosensor surface at varying concentrations ranging from 100 nM to 1.5 nM in 2-fold dilutions. Test antibodies were diluted in 0.01 M HEPES pH 7.4, 0.15 M NaCL, 3 mM EDTA, 0.005% Surfactant P20 (HBS-EP) and all experiments were done at 25° C. Each concentration point and buffer blanks were run in triplicate, and data was collected over 3 minutes of association and 8 minutes of dissociation. Kinetic and affinity constants were determined using Biaevaluation software with a 1:1 interaction model/global fit.

Assay [3] concerns the target T1, MCSF. As to the kind of experiment: Size of antigen-antibody complex by size exclusion chromatography or light scattering. Conditions: M-CSF and antibody at equal molar ratios.

B1: MC1: MCSF-specific murine antibody MC1 (SEQ ID NOs: 12 and 13), hybridoma ATCC PTA-6263 (antibody, listed as Mus musculus)
heavy: EVKLVESGGGLVQPGGSLKLSCATSGFTFSDYYMYWVRQTPEKRLEWVAYISNGGGSTYYPDTVKGRFTISRDNAKNTLYLQMSRLKSEDTAMYYCARQGSYGYPFAYWGQGTLVTVSAAKTTAPSVYPLAPVCGDTTGSSVTLGCLVKGYFPEPVTLTWNSGSLSSGVHTFPAVLQSDLYTLSSSVTVTSSTWPSQSITCNVAHPASSTKVDKKIEPRGPTIKPCPPCKCPAPNLLGGPSVFIFPPKIKDVLMISLSPIVTCVVVDVSEDDPDVQISWFVNNVEVHTAQTQTHREDYNSTLRVVSALPIQHQDWMSGKEFKCKVNNKDLPAPIERTISKPKGSVRAPQVYVLPPPEEEMTKKQVTLTCMVTDFMPEDIYVEWTNNGKTELNYKNTEPVLDSDGSYFMYSKLRVEKKNWVERNSYSCSVVHEGLHNHHTTKSFSRTPGK
light: AIQMTQTTSSLSASLGDRVTISCSASQGISNYLNWYQQKPDGTVKLLIYYTSSLHSGVPSRFSGSGSGTDYSLTISNLEPEDIATYYCQQYSKLPWTFGGGTKLEIKRADAAPTVSIFPPSSEQLTSGGASVVCFLNNFYPKDINVKWKIDGSERQNGVLNSWTDQDSKDSTYSMSSTLTLTKDEYERHNSYTCEATHKTSTSPIVKSFNRNEC
Consider B1, for which the “Neutralization of M-CSF activity (M-NFS-60 proliferation)” value with MCSF [1] is “effective inhibitors of M-CSF activity”.

B2: heRX1-9.G2: Human Engineered RX1: light chain Low + Mod Risk (Germline), heavy chain Low Risk (Kabat), Gamma 2 (antibody)
heavy: DVQLQESGPGLVKPSQTLSLTCTVTDYSITSDYAWNWIRQFPGKKLEWMGYISYSGSTSYNPSLKSRITISRDTSKNQFSLQLNSVTAADTATYYCASFDYAHAMDYWGQGTTVTVSS
light: DIVLTQSPAFLSVTPGEKVTFTCQASQSIGTSIHWYQQKTDQAPKLLIKYASESISGIPSRFSGSGSGTDFTLTISSVEAEDAADYYCQQINSWPTTFGGGTKLEIKRT
modifications: left off: a dimerising Fc or GST
As to B2, in the assay with MCSF [2] (Table 11, 25° C.), the “ka” value came out at 200000 M⁻¹ s⁻¹ and the “kd” value turned out to be 0.00144 s⁻¹. In the assay with MCSF [3], the “Size of antigen-antibody complex” value was “about 400 kDa” and the “Type of antigen-antibody complex formed with MCSF” value (“Type” below) is 2:1 or 2:2 complexes.

B3: heRX1-1.G2: Human Engineered RX1: light chain Low Risk (Kabat), heavy chain Low Risk (Kabat), Gamma 2 (antibody)
heavy: DVQLQESGPGLVKPSQTLSLTCTVTDYSITSDYAWNWIRQFPGKKLEWMGYISYSGSTSYNPSLKSRITISRDTSKNQFSLQLNSVTAADTATYYCASFDYAHAMDYWGQGTTVTVSS
light: EIVLTQSPGTLSVSPGERVTFSCRASQSIGTSIHWYQQKTGQSPRLLIKYASERISGIPDRFSGSGSGTDFTLTISRVESEDFADYYCQQINSWPTTFGQGTKLEIKRT
modifications: left off: a dimerising Fc or GST
As to B3, the “kd (sec-1)” value in the assay with MCSF [2] (Table 10, 25° C.) is given as “(1.37 ± 0.24) × 10^−3 sec-1”. For the same molecule, the “kd (sec-1)” value with MCSF [2] (Table 11, 25° C.) is “(1.37 ± 0.24) × 10^−3 sec-1”. In addition, in the assay with MCSF [3], the “Size of antigen-antibody complex” value is “greater than 2×10^6 Da” and the “Type” value is listed as “large lattice aggregates”.

B4: heRX1-10.G2: Human Engineered RX1: light chain Low + Mod Risk (Germline), heavy chain Low + Mod Risk (Kabat), Gamma 2 (antibody)
heavy: QVQLQESGPGLVKPSQTLSLTCTVSDYSITSDYAWNWIRQFPGKGLEWMGYISYSGSTSYNPSLKSRITISRDTSKNQFSLQLNSVTAADTAVYYCASFDYAHAMDYWGQGTTVTVSS
light: DIVLTQSPAFLSVTPGEKVTFTCQASQSIGTSIHWYQQKTDQAPKLLIKYASESISGIPSRFSGSGSGTDFTLTISSVEAEDAADYYCQQINSWPTTFGGGTKLEIKRT
modifications: left off: a dimerising Fc or GST
As to B4, the “kd (sec-1)” value with MCSF [2] (Table 10, 25° C.) was “(1.1 ± 0.11) × 10^−3 sec-1”. The “kd (sec-1)” value in the assay with MCSF [2] (Table 11, 25° C.) is “(1.1 ± 0.11) × 10^−3 sec-1”. Moreover, in the assay with MCSF [3], the “Size of antigen-antibody complex” value is given as “about 400 kDa” and the “Type” value is listed as 2:1 or 2:2 complexes.

B5: heRX1-5.G2: Human Engineered RX1: light chain Low Risk (Kabat) − R54 to S, heavy chain Low Risk (Kabat), Gamma 2 (antibody)
heavy: DVQLQESGPGLVKPSQTLSLTCTVTDYSITSDYAWNWIRQFPGKKLEWMGYISYSGSTSYNPSLKSRITISRDTSKNQFSLQLNSVTAADTATYYCASFDYAHAMDYWGQGTTVTVSS
light: EIVLTQSPGTLSVSPGERVTFSCRASQSIGTSIHWYQQKTGQSPRLLIKYASESISGIPDRFSGSGSGTDFTLTISRVESEDFADYYCQQINSWPTTFGQGTKLEIKRT
modifications: left off: a dimerising Fc or GST
For B5, in the assay with MCSF [2] (Table 11, 25° C.), the “ka” value amounted to 175000 M⁻¹ s⁻¹ and the “kd” value was 0.00129 s⁻¹.

B6: heRX1-3.G2: Human Engineered RX1: light chain Low + Mod Risk (Kabat), heavy chain Low Risk (Kabat), Gamma 2 (antibody)
heavy: DVQLQESGPGLVKPSQTLSLTCTVTDYSITSDYAWNWIRQFPGKKLEWMGYISYSGSTSYNPSLKSRITISRDTSKNQFSLQLNSVTAADTATYYCASFDYAHAMDYWGQGTTVTVSS
light: EIVLTQSPGTLSVSPGERVTFSCRASQSIGTSIHWYQQKTGQAPRLLIKYASERATGIPDRFSGSGSGTDFTLTISRVESEDFADYYCQQINSWPTTFGQGTKLEIKRT
modifications: left off: a dimerising Fc or GST
With B6, in the assay with MCSF [2] (Table 11, 25° C.), the “ka” value amounted to 201000 M⁻¹ s⁻¹ and the “kd” value was 0.00118 s⁻¹.

B7: heRX1-7.G2: Human Engineered RX1: light chain Low + Mod Risk (Kabat) − RAT54, 55, 56 to SIS, heavy chain Low Risk (Kabat), Gamma 2 (antibody, V domains shown)
VH: DVQLQESGPGLVKPSQTLSLTCTVTDYSITSDYAWNWIRQFPGKKLEWMGYISYSGSTSYNPSLKSRITISRDTSKNQFSLQLNSVTAADTATYYCASFDYAHAMDYWGQGTTVTVSS
VL: EIVLTQSPGTLSVSPGERVTFSCRASQSIGTSIHWYQQKTGQAPRLLIKYASESISGIPDRFSGSGSGTDFTLTISRVESEDFADYYCQQINSWPTTFGQGTKLEIK
With B7, in the assay with MCSF [2] (Table 11, 25° C.), the “ka” value stood at 157000 M⁻¹ s⁻¹ and the “kd” value amounted to 0.00149 s⁻¹.

B8: heRX1-8.G2: Human Engineered RX1: light chain Low + Mod Risk (Kabat) − RAT 54, 55, 56 to SIS, heavy chain Low + Mod Risk (Kabat), Gamma 2 (antibody, V domains shown)
VH: QVQLQESGPGLVKPSQTLSLTCTVSDYSITSDYAWNWIRQFPGKGLEWMGYISYSGSTSYNPSLKSRITISRDTSKNQFSLQLNSVTAADTAVYYCASFDYAHAMDYWGQGTTVTVSS
VL: EIVLTQSPGTLSVSPGERVTFSCRASQSIGTSIHWYQQKTGQAPRLLIKYASESISGIPDRFSGSGSGTDFTLTISRVESEDFADYYCQQINSWPTTFGQGTKLEIK
Take B8: in the assay with MCSF [2] (Table 11, 25° C.), the “ka” value was 152000 M⁻¹ s⁻¹ and the “kd” value was found to be 0.00148 s⁻¹.

B9: heRX1-2.G2: Human Engineered RX1: light chain Low Risk (Kabat), heavy chain Low + Mod Risk (Kabat), Gamma 2 (antibody)
heavy: QVQLQESGPGLVKPSQTLSLTCTVSDYSITSDYAWNWIRQFPGKGLEWMGYISYSGSTSYNPSLKSRITISRDTSKNQFSLQLNSVTAADTAVYYCASFDYAHAMDYWGQGTTVTVSS
light: EIVLTQSPGTLSVSPGERVTFSCRASQSIGTSIHWYQQKTGQSPRLLIKYASERISGIPDRFSGSGSGTDFTLTISRVESEDFADYYCQQINSWPTTFGQGTKLEIKRT
modifications: left off: a dimerising Fc or GST
With B9, in the assay with MCSF [2] (Table 11, 25° C.), the “ka” value was 218000 M⁻¹ s⁻¹ and the “kd” value was determined as 0.00165 s⁻¹.

B10: heRX1-4.G2: Human Engineered RX1: light chain Low + Mod Risk (Kabat), heavy chain Low + Mod Risk (Kabat), Gamma 2 (antibody)
heavy: QVQLQESGPGLVKPSQTLSLTCTVSDYSITSDYAWNWIRQFPGKGLEWMGYISYSGSTSYNPSLKSRITISRDTSKNQFSLQLNSVTAADTAVYYCASFDYAHAMDYWGQGTTVTVSS
light: EIVLTQSPGTLSVSPGERVTFSCRASQSIGTSIHWYQQKTGQAPRLLIKYASERATGIPDRFSGSGSGTDFTLTISRVESEDFADYYCQQINSWPTTFGQGTKLEIKRT
modifications: left off: a dimerising Fc or GST
For B10, in the assay with MCSF [2] (Table 11, 25° C.), the “ka” value is 238000 M⁻¹ s⁻¹ and the “kd” value is 0.00108 s⁻¹.

(Values after patent US11034759B2, “Humanized M-CSF specific monoclonal antibodies, kits, and uses thereof” (NOVARTIS VACCINES AND DIAGNOSTICS, INC., priority 2004, dated 2021).)
